This note sets out measurements from the supplement of paper PMC12042874.

± gives the uncertainty stated by the source.

The data set in a line: amyloid nucleation score (Sup35N fusion, yeast selection) (log enrichment); library NNK3; higher = more nucleation; inactive = no reads after selection. Summed up:
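Yeast lacking psi expressed peptides of 20 random codons fused to Sup35N, received 100 μM copper sulfate for 24 hours, and were then grown for 7 days at 30°C on medium lacking adenine and uracil. Illumina sequencing of input and output plasmid inserts provided the reads. Nucleation scores are DiMSum log enrichments of output over input, centred on the mode of non-aggregating sequences. Any sequence with under 100 input reads was excluded.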
SNRQSSGISF: the amyloid nucleation score was -0.784 ± 2.5. The same measure for SSLPMGFRSVI: “inactive”; for DRNAEELWCTRLLCYESCRT: “inactive”.

With RVSSHISSCGYDFCLWVEA, the amyloid nucleation score entry was “inactive”.

GFLCDGGN registered an amyloid nucleation score of 0.149 ± 0.51.

Take KGSSSSIDTIFLYRGYFSIA: the amyloid nucleation score entry is “inactive”.

For the substance VGCLGGRSTSSRWSSLRLLV, the amyloid nucleation score result was “inactive”. The same measure for LLVMGFCRVLCDLGGRYVRV: “inactive”; for DTDNWVLTDKTTGCSAVNGG: “inactive”. The same measure for PDLLTRILERPGVSECFMQW: “inactive”; for RQLSSQREWECATPMRHRLA: 0.145 ± 0.51; for ELIDFTIGLL: “inactive”. The same measure for LNWLITYLGKR: 2.24 ± 0.092.

As for LFDILGMYEDMASVGFCIPQ, the amyloid nucleation score entry was “inactive”. The same measure for DSGKDKF: “inactive”. The same measure for LRRYALGLSYCLEVK: “inactive”; for GCWNVMRRCVLLILPESYLV: “inactive”; for TYGGMSQSNLLRWCCFAWMY: “inactive”.

With VWFNPLCYRNYGMETLVSTK, the amyloid nucleation score result was “inactive”.

For CQVMSNFCNGMPQTQFGVGS, the amyloid nucleation score entry is “inactive”. The same measure for ALYRSGLNFVIRVGTLLMIW: 1.06 ± 0.12; for TGVRMWFVG: “inactive”. The value for CMFSLV was “inactive”; that for DNEEKLIGRSL was “inactive”; that for LCTLYWNGARWSRCFATTFY was “inactive”. Regarding NTPLWAFPEVLSDHNFN, the amyloid nucleation score entry is “inactive”.

LSLDLSPSNLNPRWFDTPFH: the amyloid nucleation score result is “inactive”. The same measure for YVAYFSGIVLMHHSRDIQFP: 0.496 ± 0.34; for RVFGLMYSQREMCTWSVRNR: 0.446 ± 0.13. The value for IKLHGQAHLIMSTLLPYMHK was “inactive”; that for ITSCRWVALKYLWSVFSLLI was “inactive”; that for RELNQFSPRAENWWYSSHSV was “inactive”. The value for TCRQNFCYCLDVIVQSCLSS was “inactive”; that for FGAMGGCGNRWKFYQRFTDP was “inactive”; that for ASGSFKPFFSVEWYLS was “inactive”.

Take VDKWDCLSYSNIVGLMRLDV: the amyloid nucleation score result is “inactive”. The value for RRPSQRLLGHIKVLWRNTTI was “inactive”; that for ASGFLYSSSHLERNKLVNKF was “inactive”; that for VYGIQRVMGRLWIMNVWVPF was “inactive”. MAGCAMRVRSYMGMKSHSEC gave an amyloid nucleation score of -0.353 ± 0.74. The same measure for RYSRWLGT: “inactive”; for NLRKKWFWAYNPSYETSPLV: “inactive”. The value for NMGALIRSRQVEVSHKRVSG was “inactive”.

Turning to KIVFSKSLGFLVFVMRYNQW, the amyloid nucleation score entry was “inactive”. The same measure for KSWVRGH: “inactive”. The value for SIFIMHGRMKF was 1.47 ± 0.072; that for DNKSL was “inactive”. The value for SCLHYVTVY was “inactive”. In the case of PYSKELVHVTSSSATFTRCE, the amyloid nucleation score result was “inactive”. The value for TYFMRPSNYHVLSLGAG was “inactive”. The same measure for SSIVEPQQLTGGPASGRFGE: “inactive”; for CDFTKSNDTCMDTASMSLLV: “inactive”. With FVSFGLGTMFDLRA, the amyloid nucleation score result was “inactive”. The same measure for KHSDL: “inactive”; for SCVLTFGFLILLRVPSYSRI: “inactive”. The value for DWRMLRGFYLHINCMLSFQG was “inactive”; that for RKVIPCH was “inactive”.

Take KGAFEMRG: the amyloid nucleation score is -0.277 ± 1.1. For WLLLLSK, the amyloid nucleation score result was “inactive”. The value for FLKLSLDIMFPYQIVYMPTT was “inactive”; that for MMGSVQLVHSIEYSCMHGTS was “inactive”. The value for FMYNLVVSGSVHSKVDRYSC was 0.629 ± 0.16.

IQLIILMASTGSLYLPSDWT came in with an amyloid nucleation score of 0.349 ± 0.18. For the substance PSHIGLL, the amyloid nucleation score result is “inactive”. The value for WFSNVGVVEVASSRCREWGI was “inactive”; that for LSLFSRSASFSSSLHMAMYH was “inactive”. The same measure for KRLVMWPRLRSRYWHKRAEQ: “inactive”; for FIIHHGVYYHAMFMDMLLLM: “inactive”. The same measure for LFWSWYGGWKLNWGI: 0.661 ± 0.14; for NVTTNRVTKLLAN: “inactive”.

LKVCNISDWFNIACSVMSFH registered an amyloid nucleation score of 1.93 ± 0.086.

On to DLLYYLRSCDFCCCMDTS, for which the amyloid nucleation score result was “inactive”. Turning to HKSIYF, the amyloid nucleation score entry is “inactive”. In the case of RKIETLWVYIYRLFRLGEQV, the amyloid nucleation score entry was “inactive”. The same measure for NVVFSFMVTRCDRLWS: 0.661 ± 0.27; for VESRRRLRVEVGFSRVDT: 0.077 ± 0.79. In the case of EKRYRPEKTF, the amyloid nucleation score result was “inactive”.

FLMAINFKVQSVPQNHR yielded an amyloid nucleation score of 0.211 ± 0.48. On to RLNCNYTFLLNTIHSPWCCC, for which the amyloid nucleation score result was “inactive”. The same measure for SDSDMNKNMHMDSTHGRAMD: “inactive”; for TNRRN: “inactive”.

Turning to GDRVSEVTDCVFQAISIRCA, the amyloid nucleation score entry is “inactive”. In the case of KAQAFLWPVPDIQ, the amyloid nucleation score is -0.571 ± 1.9. As for RMYLAHFCVIN, the amyloid nucleation score was determined as 2.9 ± 0.062. The value for LNNWSKRVFLSPVPVWHSMS was -0.619 ± 1.9; that for LNACSGFTFLFNRVVIKVIL was -0.42 ± 0.8. In the case of SFGSFMSHDEFSNVHSVGFP, the amyloid nucleation score entry was “inactive”. The same measure for TNMYYSRVANDGIF: “inactive”. The same measure for EMVLGWSARFCDK: 1.65 ± 0.088; for TADYDYQAEVCCLVIMCVHN: “inactive”; for NSSLCYFENLTTAIFVMEWI: “inactive”.

On to SDIHMMRCGVWLKNLMFMRK, for which the amyloid nucleation score result is “inactive”. Regarding AGPVPIT, the amyloid nucleation score turned out to be 0.723 ± 0.25. The same measure for VIDVFSRDLSMLIFSFGHMK: 1.12 ± 0.089. The value for VPLIMSRGRRCRMLFKLPST was “inactive”; that for EPDFEHIVCAFMGSTTGYYW was “inactive”; that for LAFKSDLSFNETVRKSSWLC was “inactive”. The same measure for LWDWVYFAYDRVYLVLCSSC: “inactive”; for NDHLSCVRMVLHSMGCHKWS: -0.181 ± 0.88. For TDLIIIRRPNFGKRGSGLGV, the amyloid nucleation score result was “inactive”. The value for SSDECV was “inactive”; that for QFESSSFRYVAVCSVCAFSI was 1.73 ± 0.099. The value for ENLSEVWLSYVDSLSIYVLS was “inactive”; that for NMVHCVLCIAHEHLKVFVMC was “inactive”.

As for GCVCQLR, the amyloid nucleation score entry was “inactive”.

LKLFLRVYCIDI gave an amyloid nucleation score of 0.535 ± 0.23. The value for MNRKVVANSGDRDGIVRTSS was 0.278 ± 0.43. The value for PDYGMSLCHLPTWMW was “inactive”.

In the case of TSDSMSLNFVTWVNQI, the amyloid nucleation score result is “inactive”.

As for CSAYNLSYHGGRDVRCRNTF, the amyloid nucleation score entry was “inactive”. The value for LWYVDTGAIILG was “inactive”; that for HGSSCTRWAWALMNILDCVM was “inactive”. The same measure for IPLDRMCFFSMK: “inactive”; for YFKVFQVLNLNICYSYRMVN: “inactive”. The same measure for LFVYVIQYVISVI: 0.74 ± 0.14.

On to TTEMWKALACPSHRTTRPCS, for which the amyloid nucleation score result is “inactive”. Turning to FMSFYVLLSSTMVTQFAMGP, the amyloid nucleation score result was “inactive”. Take SMNACSRNGLGMWKVMDLFT: the amyloid nucleation score result is “inactive”.

In the case of ALCANYCFAMFSDSGLRWTV, the amyloid nucleation score was found to be 1.01 ± 0.09. As for RDPWFLSMVVDLFGYLNWVM, the amyloid nucleation score turned out to be 0.338 ± 0.18. The same measure for SYSHRVVLRDTRTRQAKPRA: “inactive”; for HLRFFLRVVGRTFIFCHS: “inactive”.

CRENKEYIQGSDTLNFHYPM: the amyloid nucleation score entry was “inactive”. The value for YISIYFSFNRLIVNATSTTK was “inactive”.

RHWIWLMQWKD: the amyloid nucleation score is 1.11 ± 0.14. The value for ELYSDG was “inactive”; that for WTGLLLCVF was -0.093 ± 0.85; that for GLGSFLRQRRACPSGGTQ was “inactive”. As for IMGTYKSDLVAARFRFYV, the amyloid nucleation score result is “inactive”.

In the case of EVLGSLFYFGYTTGLFIPF, the amyloid nucleation score entry is “inactive”. For the substance LLGLFRLFKPQAFKGSPAAS, the amyloid nucleation score result is “inactive”.

Turning to NFWFCLISYCESFSMISERG, the amyloid nucleation score entry is “inactive”.
